# Results as given in paper PMC11472164.
# T1: trFANCM-deltaHel2i (UniProt Q8IYD8 82-647, del298-443)
# T1 sequence: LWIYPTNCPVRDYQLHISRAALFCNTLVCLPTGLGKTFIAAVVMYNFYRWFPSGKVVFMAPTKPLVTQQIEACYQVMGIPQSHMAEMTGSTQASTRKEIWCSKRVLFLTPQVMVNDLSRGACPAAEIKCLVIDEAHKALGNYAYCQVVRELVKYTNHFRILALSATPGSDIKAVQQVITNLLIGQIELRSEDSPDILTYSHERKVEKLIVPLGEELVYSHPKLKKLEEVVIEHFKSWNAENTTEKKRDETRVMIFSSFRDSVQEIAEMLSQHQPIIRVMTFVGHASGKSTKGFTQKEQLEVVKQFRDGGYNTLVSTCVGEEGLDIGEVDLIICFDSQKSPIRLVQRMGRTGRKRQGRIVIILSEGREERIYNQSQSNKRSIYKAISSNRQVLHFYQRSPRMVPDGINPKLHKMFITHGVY
# T2: trFANCM (translocase domain) (UniProt Q8IYD8 82-647)
# T2 sequence: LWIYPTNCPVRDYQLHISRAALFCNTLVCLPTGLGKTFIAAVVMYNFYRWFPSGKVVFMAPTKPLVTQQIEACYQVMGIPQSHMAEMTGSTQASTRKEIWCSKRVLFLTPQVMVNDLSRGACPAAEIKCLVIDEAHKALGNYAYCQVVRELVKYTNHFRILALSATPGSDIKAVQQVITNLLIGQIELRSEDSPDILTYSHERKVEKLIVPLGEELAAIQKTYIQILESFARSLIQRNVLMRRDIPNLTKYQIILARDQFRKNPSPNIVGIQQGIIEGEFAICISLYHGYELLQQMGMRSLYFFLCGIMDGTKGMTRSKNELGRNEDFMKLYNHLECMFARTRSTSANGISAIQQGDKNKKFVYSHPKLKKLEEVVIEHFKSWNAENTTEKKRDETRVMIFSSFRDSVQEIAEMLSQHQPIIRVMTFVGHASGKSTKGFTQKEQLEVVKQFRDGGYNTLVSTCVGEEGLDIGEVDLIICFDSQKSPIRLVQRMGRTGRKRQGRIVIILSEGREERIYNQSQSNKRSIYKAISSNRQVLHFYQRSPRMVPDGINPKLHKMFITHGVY
# How the values were obtained:
# Test in all cases: EMSA
# [1] = biological target: T1, trFANCM-deltaHel2i
# [2] = biological target: FANCMc-deltaHel2i (UniProt Q8IYD8;Q8N2Z9;A8MT69;Q9BTP7 1-297+444-2048;1-138;1-81;1-215, internal_change)
# [3] = biological target: FANCMc (full-length FANCM complex) (UniProt Q8IYD8;Q8N2Z9;A8MT69;Q9BTP7 1-2048;1-138;1-81;1-215)
# [4] = biological target: T2, trFANCM (translocase domain)
binder,measurement,setting,value
"30 bp static (non-migratable) Holliday junction, X0s1-4, IRDye700 (structured_DNA) DNA 1: TACCAGTGCCTTGCTAGGACATCTTTGCCCAC DNA 2: GTGGGCAAAGATGTCCATCTGTTGTAATCGTC DNA 3: GACGATTACAACAGATCATGGAGCTGTCTAGA DNA 4: TCTAGACAGCTCCATGTAGCAAGGCACTGGTA",binding signal,[1],> 60 fold reduction vs trFANCM
same,binding result,[2],binds
same,binding result,[3],binds
same,binding result,[4],binds
